In PMC12285236, “Xylanolytic metabolism is regulated by coordination of transcription factors XynR and XylR in extremely thermophilic Caldicellulosiruptorales”:

T1: XylR (Anaerocellum (f. Caldicellulosiruptor) …, UniProt Q44406 1-399)
T1 sequence: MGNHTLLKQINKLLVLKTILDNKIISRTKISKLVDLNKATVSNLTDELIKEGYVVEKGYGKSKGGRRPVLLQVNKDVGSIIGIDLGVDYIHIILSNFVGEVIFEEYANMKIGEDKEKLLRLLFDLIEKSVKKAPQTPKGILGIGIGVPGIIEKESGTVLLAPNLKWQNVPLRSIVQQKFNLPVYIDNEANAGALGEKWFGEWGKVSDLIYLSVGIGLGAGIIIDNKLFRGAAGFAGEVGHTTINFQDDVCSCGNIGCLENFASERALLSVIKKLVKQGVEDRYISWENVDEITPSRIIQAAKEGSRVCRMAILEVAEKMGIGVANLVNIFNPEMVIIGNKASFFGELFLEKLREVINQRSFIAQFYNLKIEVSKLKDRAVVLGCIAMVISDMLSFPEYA

B1: xynUVW FP probe (dsDNA)
DNA 1: TAAATATATAAATAGTTTGTTTAAGAAATAAACCAAAAGGAGTGATT
DNA 2: AATCACTCCTTTTGGTTTATTTCTTAAACAAACTATTTATATATTTA
B2: xylA BLI probe (dsDNA)
DNA 1: ATTATAGATATTAGTTTGTTTAATAAACAAACTAAGTACACGTACT
DNA 2: AGTACGTGTACTTAGTTTGTTTATTAAACAAACTAATATCTATAAT

Legend:
[1] = molecular target: XynR (Anaerocellum (f. Caldicellulosiruptor) bescii) (UniProt B9MPD1); assay: fluorescence polarization; conditions: 20 mM Tris-HCl, 100 mM NaCl, 0.02% Tween 20, pH 7.4; FP: 5 nM probe, 30 nM-3 uM protein, 22 C; BLI: 100 nM DNA immobilized on streptavidin sensors
XylR [2] = molecular target: T1, XylR; assay: fluorescence polarization; Hill coefficient <1; 20 mM Tris-HCl, 100 mM NaCl, 0.02% Tween 20, pH 7.4; FP: 5 nM probe, 30 nM-3 uM protein, 22 C; BLI: 100 nM DNA immobilized on streptavidin sensors; conditions: protein: recombinant; tags: C-terminal 6xHis; chain copies: 2; label: 5' 6-FAM on strand 1; blunt
XylR [3] = molecular target: T1, XylR; assay: BLI; 20 mM Tris-HCl, 100 mM NaCl, 0.02% Tween 20, pH 7.4; FP: 5 nM probe, 30 nM-3 uM protein, 22 C; BLI: 100 nM DNA immobilized on streptavidin sensors; conditions: protein: recombinant; tags: C-terminal 6xHis; chain copies: 2; label: 5' biotin on strand 1; blunt

Molecule	Kd [1] [nM]	further results
ATTGACTAGTAAACGCTTACGATATATT (double strand) [XDL FP probe]	161	–
ATTTTCATGAAATCGCTTTCCTATCTAA / TTAGATAGGAAAGCGATTTCATGAAAATA [xynMNC FP probe]	150	–
TAATAATCGAAATCGCTTACAATTCCTG (double strand) [xynR-xylB FP probe]	172	–
TGAGGTTAGAAAGCGGTTTCAAGCAATT (double strand) [xyl3A FP probe]	169	–
B1	–	Kd (XylR [2]): 165 nM
B2	–	binding result (XylR [3]): binds
